Reference: PMC9929448, “Structural analysis of the interaction between human cytokine BMP-2 and the antagonist Noggin reveals molecular details of cell chondrogenesis inhibition” (The Journal of Biological Chemistry, 2023)

Biological target: the molecule itself
Experiment: intact protein mass determination (UHPLC-HRMS); reverse-phase C4 column, water/acetonitrile with 0.1% formic acid, electrospray, QTof; covalent (disulphide) dimer

B1: Noggin (residues 28-232) (natural protein)
chain: MQHYLHIRPAPSDNLPLVDLIEHPDPIFDPKEKDLNETLLRSLLGGHYDPGFMATSPPEDRPGGGGGAAGGAEDLAELDQLLRQRPSGAMPSEIKGLEFSEGLAQGKKQRLSKKLRRKLQMWLWSQTFCPVLYAWNDLGSRFWPRYVKVGSCFSKRSCSVPEGMVCKPSKSVHLTVLRWRCQRRGGQRCGWIPIQYPIISECKCSC
modifications: biotin (biotinylated Noggin in the BLI experiments); methionine oxidation, mainly on the N-terminal methionine, in part of the sample
notes: Noggin, residues 28-232 of UniProt Q13253; Disulphide-linked homodimer; No tag (pET-17(b)); for the crystal, SEC-MALS and cell assays no biotinylation is mentioned; also called antagonist Noggin; recombinant Noggin
stoichiometry N: 2
